B1: 22097 (protein)
chain: MALPVTALLLPLALLLHAARPQLQLQESGPGLVKPSETLSLTCTVSGDSISSGDYYWGWIRQPPGKGLEWIGHIYYSGVTYYNPSLKSRVTISVDTSRNQFSLKLSSVTAADTAVYYCTREDSSNWRSRGQGTLVTVSSLEGQPKANPTVTLFPPSSEELQANKATLVCLISDFYPGAVTVAWKADGSPVKAGVETTKPSKQSNNKYAASSYLSLTPEQWKSHRSYSCQVTHEGSTVEKTVAPTECSGRADCGFTSESYQQGVLSATILYEILLGKATLYAVLVSALVLMAMVKRKDSRGRAKRSGSGATNFSLLKQAGDVEENPGPTSMDWIWRILFLVGAATGAHSFEVQLLESGGGLIQPGGSLRLSCAASGFTFSSHAMTWVRQAPGKGLEWVSAISGSGDYTHYADSVKGRFTISRDNSKNTVYLQMNSLRAEDSAVYYCAKDEDGGSLLGHRGQGTLVTVSSTRASTKGPSVFPLAPSSKSTSGGTAALGCLVKDYFPEPVTVSWNSGALTSGVHTFPAVLQSSGLYSLSSVVTVPSSSLGTQTYICNVNHKPSNTKVDKRVEPKSCIPEDTFFPSPESSCDVKLVEKSFETDTNLNFQNLSVIGFRILLLKVAGFNLLMTLRLWSSRAKRSGSGVKQTLNFDLLKLAGDVESNPGPSRGHMTEYKPTVRLATRDDVPRAVRTLAAAFADYPATRHTVDPDRHIERVTELQELFLTRVGLDIGKVWVADDGAAVAVWTTPESVEAGAVFAEIGPRMAELSGSRLAAQQQMEGLLAPHRPKEPAWFLATVGVSPDHQGKGLGSAVVLPGVEAAERAGVPAFLETSAPRNLPFYERLGFTVTADVEVPEGPRTWCMTRKPGA
B2: 22202 (protein)
chain: MALPVTALLLPLALLLHAARPACAGHLEQPQISSTKTLSKTARLECVVSGITISATSVYWYRERPGEVIQFLVSISYDGTVRKESGIPSGKFEVDRIPETSTSTLTIHNVEKQDIATYYCALWEAQQELGKKIKVFGPGTKLIITDKQLDKQLDADVSPKPTIFLPSIAETKLQKAGTYLCLLEKFFPDVIKIHWQEKKSNTILGSQEGNTMKTNDTYMKFSWLTVPEKSLDKEHRCIVRHENNKNGVDQEIIFPPIKTDVITMDPKDNCSKDANDTLLLQLTNTSAYYMYLLLLLKSVVYFAIITCCLLRRTAFCCNGEKSRAKRSGSGATNFSLLKQAGDVEENPGPTSATMDWIWRILFLVGAATGAHSGPQVQLQESGGGLAQAGGSLRLSCAASGRTFSMGWFRQAPGKEREFVAAITYSGGSPYYASSVRGRFTISRDNAKNTVYLQMNSLKPEDTAVYYCAANPTYGSDWNAENWGQGTQVTVSSGSGGGGSGGGGSGGGGSFEAIELVPEHQTVPVSIGVPATLRCSMKGEAIGNYYINWYRKTQGNTMTFIYREKDIYGPGFKDNFQGDIDIAKNLAVLKILAPSERDEGSYYCACDTLGMGGEYTDKLIFGKGTRVTVEPRSQPHTKPSVFVMKNGTNVACLVKEFYPKDIRINLVSSKKITEFDPAIVISPSGKYNAVKLGKYEDSNSVTCSVQHDNKTVHSTDFEVKTDSTDHVKPKETENTKQPSKSCHKPKAIVHTEKVNMMSLTVLGLRMLFAKTVAVNFLLTAKLFFLRAKRSGSGVKQTLNFDLLKLAGDVESNPGPSRAHMTEYKPTVRLATRDDVPRAVRTLAAAFADYPATRHTVDPDRHIERVTELQELFLTRVGLDIGKVWVADDGAAVAVWTTPESVEAGAVFAEIGPRMAELSGSRLAAQQQMEGLLAPHRPKEPAWFLATVGVSPDHQGKGLGSAVVLPGVEAAERAGVPAFLETSAPRNLPFYERLGFTVTADVEVPEGPRTWCMTRKPGA
B3: 22200 (protein)
chain: MTIRLLCYMGFYFLGAGLMEADIYQTPRYLVIGTGKKITLECSQTMGHDKMYWYQQDPGMELHLIHYSYGVNSTEKGDLSSESTVSRIRTEHFPLTLESARPSHTSQYLCASSEARGLAEFTDTQYFGPGTRLTVLEDLKNVFPPEVAVFEPSEAEISHTQKATLVCLATGFYPDHVELSWWVNGKEVHSGVCTDPQPLKEQPALNDSRYCLSSRLRVSATFWQNPRNHFRCQVQFYGLSENDEWTQDRAKPVTQIVSAEAWGRADCGFTSESYQQGVLSATILYEILLGKATLYAVLVSALVLMAMVKRKDSRGRAKRSGSGATNFSLLKQAGDVEENPGPTSATMDWIWRILFLVGAATGAHSGPQVQLQESGGGLAQAGGSLRLSCAASGRTFSMGWFRQAPGKEREFVAAITYSGGSPYYASSVRGRFTISRDNAKNTVYLQMNSLKPEDTAVYYCAANPTYGSDWNAENWGQGTQVTVSSGSGGGGSGGGGSGGGGSFEAQTVTQSQPEMSVQEAETVTLSCTYDTSESDYYLFWYKQPPSRQMILVIRQEAYKQQNATENRFSVNFQKAAKSFSLKISDSQLGDAAMYFCAYRSAVNARLMFGDGTQLVVKPNTRIQNPDPAVYQLRDSKSSDKSVCLFTDFDSQTNVSQSKDSDVYITDKCVLDMRSMDFKSNSAVAWSNKSDFACANAFNNSIIPEDTFFPSPESSCDVKLVEKSFETDTNLNFQNLSVIGFRILLLKVAGFNLLMTLRLWSSRAKRSGSGVKQTLNFDLLKLAGDVESNPGPSRGHMTEYKPTVRLATRDDVPRAVRTLAAAFADYPATRHTVDPDRHIERVTELQELFLTRVGLDIGKVWVADDGAAVAVWTTPESVEAGAVFAEIGPRMAELSGSRLAAQQQMEGLLAPHRPKEPAWFLATVGVSPDHQGKGLGSAVVLPGVEAAERAGVPAFLETSAPRNLPFYERLGFTVTADVEVPEGPRTWCMTRKPGA
B4: 22082 (protein)
chain: MALPVTALLLPLALLLHAARPQLQLQESGPGLVKPSETLSLTCTVSGDSISSGDYYWGWIRQPPGKGLEWIGHIYYSGVTYYNPSLKSRVTISVDTSRNQFSLKLSSVTAADTAVYYCTREDSSNWRSRGQGTLVTVSSLESGGGGSFEQLQLQESGPGLVKPSETLSLTCTVSGGSISSGDYYWGWIRQPPGKGLEWIGHIYYSGATYYNPSLKSRVTISVDTSRNQFSLKLSSVTAADTAVYYCTRDDSSNWRSRGQGTLVTVSSTRASTKGPSVFPLAPSSKSTSGGTAALGCLVKDYFPEPVTVSWNSGALTSGVHTFPAVLQSSGLYSLSSVVTVPSSSLGTQTYICNVNHKPSNTKVDKRVEPKSCIPEDTFFPSPESSCDVKLVEKSFETDTNLNFQNLSVIGFRILLLKVAGFNLLMTLRLWSSRAKRSGSGVKQTLNFDLLKLAGDVESNPGPSRGHMTEYKPTVRLATRDDVPRAVRTLAAAFADYPATRHTVDPDRHIERVTELQELFLTRVGLDIGKVWVADDGAAVAVWTTPESVEAGAVFAEIGPRMAELSGSRLAAQQQMEGLLAPHRPKEPAWFLATVGVSPDHQGKGLGSAVVLPGVEAAERAGVPAFLETSAPRNLPFYERLGFTVTADVEVPEGPRTWCMTRKPGA
B5: 22207 (protein)
chain: MALPVTALLLPLALLLHAARPDIQMTQSPSSLSASVGDRVTITCKASDHINNWLAWYQQKPGQAPKLLIYGATTLETGVPSRFSGSGSGTDYTLTISSLQPEDFATYYCQQSWNTPWTFGQGTKLEIKRLEGQPKANPTVTLFPPSSEELQANKATLVCLISDFYPGAVTVAWKADGSPVKAGVETTKPSKQSNNKYAASSYLSLTPEQWKSHRSYSCQVTHEGSTVEKTVAPTECSPIKTDVITMDPKDNCSKDANDTLLLQLTNTSAYYMYLLLLLKSVVYFAIITCCLLRRTAFCCNGEKSRAKRSGSGATNFSLLKQAGDVEENPGPTSMDWIWRILFLVGAATGAHSFEQVQLQQPGAELVKPGASVKMSCKASGYAFSSYWINWMKQKPGQGLEWIGQIYPGDGDTNYNGKFKGRATLTADTSSSTAYMQLSSLTSEDSAVYFCARSITTVVGCAMDYWGQGTSVTVSSTRSQPHTKPSVFVMKNGTNVACLVKEFYPKDIRINLVSSKKITEFDPAIVISPSGKYNAVKLGKYEDSNSVTCSVQHDNKTVHSTDFEVKTDSTDHVKPKETENTKQPSKSCHKPKAIVHTEKVNMMSLTVLGLRMLFAKTVAVNFLLTAKLFFLRAKRSGSGVKQTLNFDLLKLAGDVESNPGPSRGHMTEYKPTVRLATRDDVPRAVRTLAAAFADYPATRHTVDPDRHIERVTELQELFLTRVGLDIGKVWVADDGAAVAVWTTPESVEAGAVFAEIGPRMAELSGSRLAAQQQMEGLLAPHRPKEPAWFLATVGVSPDHQGKGLGSAVVLPGVEAAERAGVPAFLETSAPRNLPFYERLGFTVTADVEVPEGPRTWCMTRKPGA
B6: 22205 (protein)
chain: MTIRLLCYMGFYFLGAGLMEADIYQTPRYLVIGTGKKITLECSQTMGHDKMYWYQQDPGMELHLIHYSYGVNSTEKGDLSSESTVSRIRTEHFPLTLESARPSHTSQYLCASSEARGLAEFTDTQYFGPGTRLTVLEDLKNVFPPEVAVFEPSEAEISHTQKATLVCLATGFYPDHVELSWWVNGKEVHSGVCTDPQPLKEQPALNDSRYCLSSRLRVSATFWQNPRNHFRCQVQFYGLSENDEWTQDRAKPVTQIVSAEAWGRADCGFTSESYQQGVLSATILYEILLGKATLYAVLVSALVLMAMVKRKDSRGRAKRSGSGATNFSLLKQAGDVEENPGPTSATMDWIWRILFLVGAATGAHSGPQVQLQESGGGLAQAGGSLRLSCAASGRTFSMGWFRQAPGKEREFVAAITYSGGSPYYASSVRGRFTISRDNAKNTVYLQMNSLKPEDTAVYYCAANPTYGSDWNAENWGQGTQVTVSSGSGGGGSGGGGSGGGGSFEQVQLQQPGAELVKPGASVKMSCKASGYAFSSYWINWMKQKPGQGLEWIGQIYPGDGDTNYNGKFKGRATLTADTSSSTAYMQLSSLTSEDSAVYFCARSITTVVGCAMDYWGQGTSVTVSSTRIQNPDPAVYQLRDSKSSDKSVCLFTDFDSQTNVSQSKDSDVYITDKCVLDMRSMDFKSNSAVAWSNKSDFACANAFNNSIIPEDTFFPSPESSCDVKLVEKSFETDTNLNFQNLSVIGFRILLLKVAGFNLLMTLRLWSSRAKRSGSGVKQTLNFDLLKLAGDVESNPGPSRGHMTEYKPTVRLATRDDVPRAVRTLAAAFADYPATRHTVDPDRHIERVTELQELFLTRVGLDIGKVWVADDGAAVAVWTTPESVEAGAVFAEIGPRMAELSGSRLAAQQQMEGLLAPHRPKEPAWFLATVGVSPDHQGKGLGSAVVLPGVEAAERAGVPAFLETSAPRNLPFYERLGFTVTADVEVPEGPRTWCMTRKPGA

test system: RAJI cells; assay: JNG assay, co-culture with RAJI cells; type: cell-based; details: JNG cells expressing construct, co-culture with Raji
Outline: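 Jurkat-NFAT-GFP (JNG) cells stably expressing SAR constructs via lentiviral transduction and puromycin/blasticidin selection were cocultured with target cells at E:T ~1:2 for ~4–18 h. NFAT-driven GFP was measured by FACS versus parental JNG cells; scores +/- to 5+ denote ~5–50% GFP-positive cells.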

Question: Which “NFAT-GFP ASSAY: Raji” value does the source give for B1 here?
Answer: + (refer to approximately 5%, 10%, 20%, 30%, 40% and 50% GFP positive cells)

Question: With B2 as the molecule, how does the “NFAT-GFP ASSAY: Raji” value read?
Answer: Raji (3+) (refer to approximately 5%, 10%, 20%, 30%, 40% and 50% GFP positive cells)

Question: With B3 as the molecule, how does the “NFAT-GFP ASSAY: Raji” value read?
Answer: + (refer to approximately 5%, 10%, 20%, 30%, 40% and 50% GFP positive cells)

Question: For B4, which “NFAT-GFP ASSAY: Raji” value is on record?
Answer: +/- (refer to approximately 5%, 10%, 20%, 30%, 40% and 50% GFP positive cells)

Question: B5 was tested. Which “NFAT-GFP ASSAY: Raji” value did it give?
Answer: Raji (5+) (refer to approximately 5%, 10%, 20%, 30%, 40% and 50% GFP positive cells)

Question: B6 was tested. Which “NFAT-GFP ASSAY: Raji” value did it give?
Answer: Raji (5+) (refer to approximately 5%, 10%, 20%, 30%, 40% and 50% GFP positive cells)
